Measurements published in the nanobody polyreactivity screen of Harvey et al. (2022).

assay: yeast display, Sf9 membrane polyspecificity reagent, FACS + sequencing; frameworks hold sequencing errors
Summary of the method: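 After 36–48 hours of galactose induction, yeast (Saccharomyces cerevisiae BJ5465) displaying a synthetic nanobody library were stained at 4 °C for 1 hour with 10% biotinylated, detergent-solubilized Sf9 membrane reagent. Streptavidin microbeads enriched the stained cells before FACS sorting into low and high (top ~1%) gates on anti-HA and streptavidin fluorescence. Each clone's polyreactivity label reflects its gate of origin.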

Row | Sequence | polyreactivity (PSR sort gate)
1 | QVQLVESGGGLVQAGGSLRLSCAASGRIFKYYAMGWYRQPPGKERELVAAISRSSGRTYYADSVKGRCTISRDNAKNTVYFQMIRLKPEDTAVYYCNALPSTVYLTYDYWGLGTQVTVSS | high polyreactivity
2 | QVQLVESGGGLVQAGGSLRLSCAASGRIFGYNAMGRYRQAPGKERELVAAISSGASTIYADSVKGRFTISRDNAKNTVYLQMNSLKPEDTAVYYCAKEKVISPYPYSYYKSDYWGQGTQVTVSS | high polyreactivity
3 | QVQLVESGGGLVQAGGRLRLSCAASGSIFAGYAMGWYRQAPGKERELVAASSTDYADSVKGRFTISRDNAKNTVYLHMNSLKPEDTAVYYCAKVGFGIPGGFYYWGQGTQVTVSS | low polyreactivity
4 | QVQLVESGGGLVHAGCSLRLSCDASGRIFKNYAMGWYRQAPGKERELVAAISWSGGRTYYADSVKGRFTISRDYAKNTVYLQMHRLKPEDTEVYYCATAARRGPTSIEPFGYGSWGQGTQVTVSS | high polyreactivity
5 | QVQLVESGGGLVQAGGSLRLSCAASGSIFSSNAMGWYRQAPGKERELVAAIDYSGGRTYYADSVKGRFTISRDNAKNTVYLQMNSLKPEDTAVYYCAKLIPVHSRYDYWGQGTQVTVSS | low polyreactivity
6 | QVQLLESGRGLVQEGGSLRLSCAASGFTFTAYAMGWYRQAPGKERELVAVISVRGGRTRYADSVKGRFTLSRDNAKNTVYLQMNSLKPEDTAVYYCDARYRPYSGSPQYDYWGQGTQVTVSS | high polyreactivity
7 | QVQLVESGGGLVQAGGSLRLSCAASGRILILNAMGWYRQAPGKERELVAAITNGGSTNYADSVKGRFTISRDNAKNSVYLQMNSLKPEDTAVYYCAARLYSYDYYTVLKLFDYWGQGTQVTVSS | low polyreactivity
8 | QVQLVESGGGLVQAGGSLRLSCAASGITFYGYAMGWYRQAPGKERELVASISYGGGSTYYADSVKGRFTISRDNAKNTVYFQLNSLKPEDTAVYYCAAQAATYYSGYYYWGQGTQVTVSS | high polyreactivity
9 | QVQLVESGGGLVQAGGSLRLSCAASGSISIRNAMGWYRQAPGTERELVAAITYSGGSTYYADSVKGRFTISRDNAKNTVYLQLNRLKPEDTAVYYCAKDHYRFRYDYWGQGTQVTVSS | low polyreactivity
10 | QVQLVESGGGLVQAGGSLRLSCAASGYTFFKNAMGWYRQAPGKERELVAAISYSGGRTYYADSVKGRFTISRDNAKNTVYLQMNSLKPEDTAVYYCAKATRVITDDGSYGYWGQGTQVTVSS | high polyreactivity
11 | QVQLVESGGGLVQAGGSLRLSCAASGFIFYYYAMGWYIQAPGKERELVAAIDWDGDRTYYADSVKGRFTISRDNAKNTVYLQMNSLKPEDTAVYYCAAEWPVNFDYWGQGTQVTVSS | low polyreactivity
12 | QVQLVESGGGLVQSGGSLRLSCAASGFTFSRYAMGWYRQAPGKERELVAAINWSGGSTYYADSVKGRFTISRDNAKNTVYLQMNSLKPEDTAVYSCAKPAGGSGYDSWGQGTQVTVSS | high polyreactivity
13 | QVQLVESGGGLVQAGGSLRISCAASGSTFEVNAMGWYRQAPGKERELVAAISYRGTSTYYADSVKGRFTISRDNAKNTVYLQMNSLKPEDNAVYYCAAEWYDWYWEYDSWGQGTQVTVSS | high polyreactivity
14 | QVQLVESGGGLVQAGGSLRLSCAASGSTFYGYAMGWYRQAPGKERELVAAITRSGGSTYYADSVKGRFTISRDNAKNTVYLQMNSLKPEDTEVYYCNKYGYKGGVGYDYWGQGSQVTVSS | high polyreactivity
15 | QVQLVESGGGLVQAGGSLRLSCAASGSIFTDNAMGWYRQAPGKERELVAGISYNGDNTYYADSVKGRFTISRDNAKNTVYLQMNSLKPEDTAVYYCAAADGIIESDYWGQGTQVTVSS | low polyreactivity
16 | QVQLVESGGGLVQAGGSLRLSCAASGGTFGYYAMGWYRQAPGKERELVAAINRSDGGTYYADSVKGRFTISRDNAKNTVYLQMNSLKPEDTAVYYCNADDFYYDEPYDYWGQGTQVTVSS | low polyreactivity
17 | QVQLVESGGGLVQAGGSLRLSCAASGSIFAYYALGWYRQAPGKERELVASIDWSGDLYVRDSVKGRFTISRDNAKNTVYFLMNSLKPEDTAVYYCAKDVSFQYGTGYDYWGQGNQVTVSS | low polyreactivity
18 | QVQLVESGGGLVQAGGSLRLCCAASGSTFYYYAMGWYRQAPGKVRELVASITTGGGSTYYADSVKGRFTISRDNAKNTVYLQMNSLKPEDTAVSYCAAALAYYYWWYDYWGQGTQVTASS | low polyreactivity
19 | QVQLVESGGGLVQAGGSLRLSCAASGNIFGLNSMGWYRQAPGIDRELVSAISKSGGSTFYADSVKGRFKISRDNAKNTVYLQMNSLKPEDTAVYYCAARWNGARPNHTYGYWGQGTQVTVSS | high polyreactivity
20 | QVQLVESGGGLVQAGGSLRLSCAASGSIFVPYAMGWYIQAPGKERELVAAISSRGGSTYYADSVKGRFTISRDNAKNTVYLQMNSLKPEDTAVYYCNTDISRNYYWALYGYWGQGTQVTVSS | low polyreactivity
21 | QVQLVESGGGLVQAGGSLRLSCAASGSTFWEYVMGWYRQAPGKERELVAAISDSGGSTYYADSVKGRFTISRDNAKNTVYLQMNSLKPEDTAVYYCNADWSWYNYYDFDYWGQGTQVTVSS | low polyreactivity
22 | QVQLVESGGGLVQAGGSLRLSCAASGRTFYGYAMGWYRQAPGKERELVAAISKSGGRTYYADSVKGRFTISRDNAKNTVYLQMNSLKPEDSAVYYCNAPVTGAGTYPPYDSWGQGTQVTVSS | high polyreactivity

Row | Sequence | polyreactivity (PSR sort gate)
23 | QVQLVESGGGLVQAGGSLRLSCAASGFTFIRYARGWYRPAPGKERELVAAIRGTGTSTYYADSVKGRFTISRDNAKNTVYLQMNSLKPEDTAVDYCNTVAGRSPYTRYDYWGQGTQVTVSS | low polyreactivity
24 | QLQLVESGGGLVQAGGSLRLSCAASGYTFTSYTKGWYRQAPGKEWELVAAITWTGGRTYYADSVKGRFTISRDNAKNTVYLQMNSLKPEDTAVYFCAGSWRKVDYWGQGTQVTVSS | high polyreactivity
25 | QVQLVESGGGLVQAGGSLRLSCAASGFNFDFYAMGWYRQAPGKEREMVAAISKNDGTTYFAYSVKGRFTISRDNAKNTVYLQMNSLKPEDTAVYFCAAESGYPVYTYVSSGVYWGQGTQVTVSS | low polyreactivity
26 | QVQLVESGGGLVQAGGILRLTSAGSGFNYYPYDMGWSRQAPGKERELVAAITQSGGSTYYADSVKGRFTISRDNAKITVYLQMISLKPEDTAVYSCNADTRGEYTYVSWYDYWGQGSQVTVSS | low polyreactivity
27 | QVQLVESGGGLVQAGGSLRLRSAASGSIYNQNAMGWYRQAHGNRELVAAITNGVSTDYADSVKGRFTISRDNAKNTVYLKLNSLKPEDTAVYYCNAGNYQYPSFEYDYWGLGTQVTVSS | low polyreactivity
28 | QVQLVESGGGLVQAGGSLRLSCAPSGSIFVTYAMGWYRQAPGKERELVAAISTSGGSTYADSVKGRFTISRVNAKNTVYLQMNSLKPEDTAVYYCNADDPGYAVPWYWFKYDYWGQGTQVTVSS | low polyreactivity
29 | QVQLVESGGGLVQAGGSLRLSCAASGRTFAVYAMGWYRQAPGKERELDAAITYGGGRTYYADSVKGRFTISRDNAKNTVYLQMYSLKPEDTAVYYCAADYYGTDYDYWGQGTQVTVSS | low polyreactivity
30 | QVHLVESGGGLVNAGGSLRLSCAASGRIFSGYAMGWYRQAPGKERELVAAITSVGSTNNADSVKGRFTISRDNAKNTVYLQMNSLKPEDTAVYYCAARGSYARGYDYWGQGTQVTVSS | high polyreactivity
31 | QVQLVESGGGLVQAGGSLRLSCAASGYIFVYYVMGWYRQAPGKERELVTAIDGNGVSTYYADSVKGRFSISRDNAKYSVYLQMNSLKPDDTAVYYCAADYLYHQTSRGKYYSWGQGTQVTVSS | low polyreactivity
32 | QVQLVESRGGLVQAGGSLRLSCAASGRIFGYYAMGWYRQAPGKERELVATIRGGGSTNYADSVKGRFTISRDNAKNTVYLQMNSLKPEDTAVYYCAKPGAKWRGFDYWGQGTQVTVSS | low polyreactivity
33 | QVQLVESGGGLVQAGGSLRLSCAASGFTISLNTMGWYRQAPGKERELVAAINSGDSTYADSVKGRFTISRDNAKNTGYFQMNSLKPEDTAVYYCNADPDWWYPYFYWGQGTQVTVSS | low polyreactivity
34 | QVQVVESGGGLVQAGGSLRLSCAASGLISWLYVMGWYRQAPGKERELVAAIRYSGGRTYYADSVKGRFTISRDNAKNTDYLQMHSLKPEDTAVYYCNALPWALYDSTSIYYYWGQGTQVTVSS | low polyreactivity
35 | QVQLVESGGGLVQAGGSLRLSCAASGRTLSRNAMGWYRQAPGKEREFVAAISQRGGSTYYADSVKGRFTISRDNAKNTVYLQMNSLKPEDTAVYYCARRYNAQDYARFDYWGQGTQVTVSS | high polyreactivity
36 | QVQLVESGGGLVQAGGSLRLSCAASGSTFYFYAMGWYRQAPGKERELVAAISSSGGSTYYADSVKGRFTISRDNAKNTVYLQMNSLKPEDTAVYYCAADDAIYDSLDYWGQGTQVTVSS | low polyreactivity
37 | QVQLVESGGGLVQAGGSLRLSCAASGRIFGVNAMGWYRQAPGKERELVAAISVSGDSTYYADSVKGRFTISRDNAKNTVYLQMNSLKPEDTAVYYCNAGYTFVPADLTDEYYWGQGTQVTVSS | low polyreactivity
38 | QVQLVESGGGLVQAGGSLRFSCAASGRIYYNAMGWYRQAPGKERELVAAISGSGTRTYYADSVKGRFTISRDNAKNTVFLQMNSLKPEDTAVYYCNAKFFLAATTRYYYWGQGTQVTVSS | high polyreactivity
39 | QVQLVESGGGLVQAGGSLRLSCAASGFIFSYYAMGWYRQAPGKERELVATITSGGSTNYADSVKGRFTISRDNAKNTVYLQMNSLKPEVTAVNYCATRKYRVPRSYDWGQGTQVTVTS | high polyreactivity
40 | QVQLVESGGGLVQAGGSHRLSCAASGRIFFPYDMGWYRQAPGKDRELVAAITNSGGRTYYADSVKGRFTISRDNAKNTVYLQMNSLKPEDSAVYYCAAEYVSAKWEYGYWGQGTQVTVSS | low polyreactivity
41 | QVQLVESGGGFVQAGGSLRLSCAASGRLFFIYAMGWYRQAPGKDRELVAAITGRGGRTYYADSVKGRFTISRDKPKNTVYLEMYSQKPEDTAVYYCAADSRDSYLFYYWGQGTQVTVST | high polyreactivity
42 | QVQLVESGGGLVQAGGSLRLSCAASGFTINFYAMGWYRQAPGKERELVAAITASGGGSTYYADSVKGRFTISRDNAKNTVYLQMNSLKPEDTAVYYCNADYTGSFYTYDYWGQGTQVTVSS | low polyreactivity
43 | QVQLVESGGGLVQAGGSLRLSCAASGRIFHPNAMGWYRRATGKERELVAAISRSGSTYYADSVKGRFTISRDNAKNTVYLQMNSLKPEDTAVYYCATQTWSGYSGTPRIYDYWGQGTQVTVSS | high polyreactivity
